In patent US20250144275A1, “SYSTEM AND METHOD FOR COATING MEDICAL CONDUIT WITH PARTICLES AND USE THEREOF” (UNIVERSITY OF PITTSBURGH - OF THE COMMONWEALTH SYSTEM OF …, priority 2022, published 2025):

Tested on: facial nerve of Lewis rats
Test: Histological processing of muscle, mystacial pad and buccal branch nerve
Type: in vivo
Conditions: mystacial pad, qualitative, 12-week endpoint
Method: This study was performed on the facial nerve of Lewis rats (Charles River, Wilmington, MA). Institutional approval was obtained before performing the study, and all animal procedures and housing were performed under the guidelines of the University of Pittsburgh Institutional Animal Care and Use Committee and in compliance with animal experimentation ethics policies.
Surgical procedures. Rats were placed under general anesthesia and maintained with Isoflurane. Preauricular/buccal incision lines were marked (FIG. 8A) and the nerve branches were exposed (FIG. 8B). A 5 mm segment of the marginal mandibular branch was removed to prevent cross-innervation contribution to the whisker movement^41. The buccal branch was then transected, and the resultant 2 mm defect was primarily repaired with 9-0 nylon sutures. […]
Histological processing. […] For the muscles, the mean muscle fiber pixel area was calculated from brightfield staining. […] Cross-sections of the main buccal branch distal to the injury site were analyzed for the number of axons. For S100, sections of the nerve distal and proximal to the transection and repair site were quantified separately and the ratio was used for comparison. All samples were blinded before quantification.

B1: GDNF: Recombinant human GDNF protein (R&D Systems), active agent of the microspheres (protein, UniProt P39905 78-211, looked up)
Glial cell line-derived …: SPDKQMAVLPRRERNRQAAAANPENSRGKGRRGQRGKNRGCVLTAIHLNVTDLGLGYETKEELIFRYCSGSCDAAETTYDKILKNLSRNRRLVSDKVGQACCRPIAFDDDLSFLDDNLVYHILRKHSAKRCGCI
modifications: in microspheres
Which “local adverse effects on whisker pad and intrinsic vibrissae muscles (morphology)” value does the source give for B1 here?
Its value is “no local adverse effects”.
